Test results from patent US11260115B1, “Peptides and combination of peptides for use in immunotherapy against CLL and other cancers” (immatics biotechnologies GmbH, priority 2015, dated 2022).

Target: HLA-A*02:01 (Homo sapiens, UniProt P04439, D140Y/D185E/D98H/E176V/E277Q/G131W/G231S/I119V/I121R/I166T/I218V/L300P/L318F/N151K/N90K/P208A/P217A/Q86G/Q94H/R138H/R169H/T345S)
Test: MHC binding assay (UV-ligand exchange, β2m ELISA, peptide exchange yield)
Settings: binding to HLA-A*02:01
Procedure, shortened: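 Peptide-HLA-A*02:01 complexes formed by UV-mediated exchange of a photocleavable ligand; exchange yield measured by streptavidin-capture ELISA detecting β2m with HRP anti-β2m, TMB read at 450 nm. Refolded monomer standards 15-500 ng/ml; samples diluted 100-fold.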

“324 (SLYSALQQA; listed as Homo sapiens) [compound 324]” was tested, and the “Peptide Exchange (MHC class I binding score, peptide exchange yield)” value (“Peptide Exchange” for short) was ““+++” (>50 = +++)”.

In the case of “325 (TLENGVPCV; listed as Homo sapiens) [compound 325]”, the “Peptide Exchange” value is reported as ““+++” (>50 = +++)”.

In the case of “326 (VLAFLVHEL; listed as Homo sapiens) [compound 326]”, the “Peptide Exchange” value is reported as ““++++” (>75% = ++++)”.

“327 (VLIKWFPEV; listed as Homo sapiens) [compound 327]” was tested, and the “Peptide Exchange” value was ““++++” (>75% = ++++)”.

With “328 (VLLPQETAEIHL; listed as Homo sapiens) [compound 328]” the “Peptide Exchange” value was ““++++” (>75% = ++++)”.

“329 (VLMDGSVKL; listed as Homo sapiens) [compound 329]” was tested, and the “Peptide Exchange” value was ““++++” (>75% = ++++)”.

For “330 (VLMWEIYSL; listed as Homo sapiens) [compound 330]”, the “Peptide Exchange” value was ““+++” (>50 = +++)”.

With “331 (VLWELAHLPTL; listed as Homo sapiens) [compound 331]” the “Peptide Exchange” value was ““+++” (>50 = +++)”.

“333 (VTLEFPQLIRV; listed as Homo sapiens) [compound 333]” was tested, and the “Peptide Exchange” value was ““+++” (>50 = +++)”.

With “334 (YLLEEKIASL; listed as Homo sapiens) [compound 334]” the “Peptide Exchange” value was ““+++” (>50 = +++)”.

In the case of “335 (YLYQEQYFI; listed as Homo sapiens) [compound 335]”, the “Peptide Exchange” value is reported as ““+++” (>50 = +++)”.

In the case of “336 (YMAVTTQEV; listed as Homo sapiens) [compound 336]”, the “Peptide Exchange” value is reported as ““++++” (>75% = ++++)”.

“337 (YMYEKESEL; listed as Homo sapiens) [compound 337]” was tested, and the “Peptide Exchange” value was ““++” (>20% = ++)”.

“338 (FLDMTNWNL; listed as Homo sapiens) [compound 338]” was tested, and the “Peptide Exchange” value was ““++++” (>75% = ++++)”.

For “339 (GLWGTVVNI; listed as Homo sapiens) [compound 339]”, the “Peptide Exchange” value was ““+++” (>50 = +++)”.

For “340 (KLLEEICNL; listed as Homo sapiens) [compound 340]”, the “Peptide Exchange” value was ““++++” (>75% = ++++)”.

With “341 (LLAELPASVHA; listed as Homo sapiens) [compound 341]” the “Peptide Exchange” value was ““+++” (>50 = +++)”.

For “342 (SLITPLQAV; listed as Homo sapiens) [compound 342]”, the “Peptide Exchange” value was ““+++” (>50 = +++)”.

With “344 (VLAFENPQV; listed as Homo sapiens) [compound 344]” the “Peptide Exchange” value was ““+++” (>50 = +++)”.

In the case of “345 (YLIEPDVELQRI; listed as Homo sapiens) [compound 345]”, the “Peptide Exchange” value is reported as ““+++” (>50 = +++)”.

In the case of “346 (VLVQVSPSL; listed as Homo sapiens) [compound 346]”, the “Peptide Exchange” value is reported as ““+++” (>50 = +++)”.

“347 (YLGPVSPSL; listed as Homo sapiens) [compound 347]” was tested, and the “Peptide Exchange” value was ““+++” (>50 = +++)”.

In the case of “348 (ALAKPPVVSV; listed as Homo sapiens) [compound 348]”, the “Peptide Exchange” value is reported as ““+++” (>50 = +++)”.

“349 (ALATHILSL; listed as Homo sapiens) [compound 349]” was tested, and the “Peptide Exchange” value was ““+++” (>50 = +++)”.

“350 (ALEDRVWEL; listed as Homo sapiens) [compound 350]” was tested, and the “Peptide Exchange” value was ““+++” (>50 = +++)”.

For “351 (ALSEKLARL; listed as Homo sapiens) [compound 351]”, the “Peptide Exchange” value was ““+++” (>50 = +++)”.

For “352 (ALVFELHYV; listed as Homo sapiens) [compound 352]”, the “Peptide Exchange” value was ““+++” (>50 = +++)”.

For “353 (ATPMPTPSV; listed as Homo sapiens) [compound 353]”, the “Peptide Exchange” value was ““++” (>20% = ++)”.

For “354 (FIMDDPAGNSYL; listed as Homo sapiens) [compound 354]”, the “Peptide Exchange” value was ““+++” (>50 = +++)”.

With “355 (FIWPMLIHI; listed as Homo sapiens) [compound 355]” the “Peptide Exchange” value was ““+++” (>50 = +++)”.

For “356 (FLHDHQAEL; listed as Homo sapiens) [compound 356]”, the “Peptide Exchange” value was ““++” (>20% = ++)”.

For “357 (FLIQEIKTL; listed as Homo sapiens) [compound 357]”, the “Peptide Exchange” value was ““+++” (>50 = +++)”.

With “358 (FLTDYLNDL; listed as Homo sapiens) [compound 358]” the “Peptide Exchange” value was ““+++” (>50 = +++)”.

“359 (FMQDPMEVFV; listed as Homo sapiens) [compound 359]” was tested, and the “Peptide Exchange” value was ““+++” (>50 = +++)”.

For “360 (HLIDTNKIQL; listed as Homo sapiens) [compound 360]”, the “Peptide Exchange” value was ““+++” (>50 = +++)”.

With “361 (ILQEFESKL; listed as Homo sapiens) [compound 361]” the “Peptide Exchange” value was ““+++” (>50 = +++)”.

With “362 (ILTELGGFEV; listed as Homo sapiens) [compound 362]” the “Peptide Exchange” value was ““+++” (>50 = +++)”.

With “363 (ITTEVVNELYV; listed as Homo sapiens) [compound 363]” the “Peptide Exchange” value was ““+++” (>50 = +++)”.

For “364 (KMDWIFHTI; listed as Homo sapiens) [compound 364]”, the “Peptide Exchange” value was ““+++” (>50 = +++)”.

“365 (LISPLLLPV; listed as Homo sapiens) [compound 365]” was tested, and the “Peptide Exchange” value was ““+++” (>50 = +++)”.

For “367 (NLWSLVAKV; listed as Homo sapiens) [compound 367]”, the “Peptide Exchange” value was ““+++” (>50 = +++)”.

With “369 (RLLDLENSLLGL; listed as Homo sapiens) [compound 369]” the “Peptide Exchange” value was ““+++” (>50 = +++)”.

“370 (SIFASPESV; listed as Homo sapiens) [compound 370]” was tested, and the “Peptide Exchange” value was ““+++” (>50 = +++)”.

With “371 (SLADDSVLERL; listed as Homo sapiens) [compound 371]” the “Peptide Exchange” value was ““+++” (>50 = +++)”.

For “372 (SLFGPLPGPGPALV; listed as Homo sapiens) [compound 372]”, the “Peptide Exchange” value was ““+++” (>50 = +++)”.

In the case of “373 (TLLADQGEIRV; listed as Homo sapiens) [compound 373]”, the “Peptide Exchange” value is reported as ““++” (>20% = ++)”.

With “374 (VLSVITEEL; listed as Homo sapiens) [compound 374]” the “Peptide Exchange” value was ““+++” (>50 = +++)”.

For “375 (VLWFKPVEL; listed as Homo sapiens) [compound 375]”, the “Peptide Exchange” value was ““+++” (>50 = +++)”.

In the case of “376 (VLYNQRVEEI; listed as Homo sapiens) [compound 376]”, the “Peptide Exchange” value is reported as ““+++” (>50 = +++)”.

With “377 (VVDGTCVAV; listed as Homo sapiens) [compound 377]” the “Peptide Exchange” value was ““+++” (>50 = +++)”.
